Laboratory results as given in publication PMC7817140.
Values belong to the molecule of their own block, whether it stands above or below them.

What was measured:
[1] = target: Mas receptor, endogenous in mouse striatal cells (mouse (endogenous in primary striatal neurons and microglia)) (UniProt P30554); test: proximity ligation
[2] = target: T1, Mas receptor fused to Rluc (MasR-Rluc) (human), P04201; test: FRET or BRET; conditions: remark: other sources report otherwise
T1 chain: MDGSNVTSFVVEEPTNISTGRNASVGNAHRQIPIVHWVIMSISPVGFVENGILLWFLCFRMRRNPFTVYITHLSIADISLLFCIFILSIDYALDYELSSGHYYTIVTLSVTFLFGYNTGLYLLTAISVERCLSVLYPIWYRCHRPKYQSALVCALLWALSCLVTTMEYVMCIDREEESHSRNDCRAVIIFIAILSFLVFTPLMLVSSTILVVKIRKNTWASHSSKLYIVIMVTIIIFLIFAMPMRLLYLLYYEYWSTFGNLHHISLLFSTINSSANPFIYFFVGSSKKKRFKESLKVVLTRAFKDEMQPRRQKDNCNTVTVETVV

Chain of UniProt P30554 (P30554 whole entry, the tested form may be a part): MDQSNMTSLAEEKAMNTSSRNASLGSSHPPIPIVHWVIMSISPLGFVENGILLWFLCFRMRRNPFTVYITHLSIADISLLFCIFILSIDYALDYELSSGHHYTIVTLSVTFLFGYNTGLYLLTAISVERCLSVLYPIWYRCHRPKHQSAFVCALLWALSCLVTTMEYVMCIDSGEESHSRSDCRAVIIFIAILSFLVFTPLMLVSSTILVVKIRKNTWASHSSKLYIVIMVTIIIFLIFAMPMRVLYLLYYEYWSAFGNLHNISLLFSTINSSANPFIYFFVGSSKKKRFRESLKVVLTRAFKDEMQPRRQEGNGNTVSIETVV

Molecule: Angiotensin AT1 receptor, endogenous in mouse striatal cells (from UniProt P29754 1-359)
PLA red dots/cell (striatal neurons) (red dots/cell) [1]: 1.44

BRET50 [2]: 13 mBU
B1: Angiotensin AT1 receptor fused to YFP (AT1R-YFP), P30556 1-359 (receptor)
chain: MILNSSTEDGIKRIQDDCPKAGRHNYIFVMIPTLYSIIFVVGIFGNSLVVIVIYFYMKLKTVASVFLLNLALADLCFLLTLPLWAVYTAMEYRWPFGNYLCKIASASVSFNLYASVFLLTCLSIDRYLAIVHPMKSRLRRTMLVAKVTCIIIWLLAGLASLPAIIHRNVFFIENTNITVCAFHYESQNSTLPIGLGLTKNILGFLFPFLIILTSYTLIWKALKKAYEIQKNKPRNDDIFKIIMAIVLFFFFSWIPHQIFTFLDVLIQLGIIRDCRIADIVDTAMPITICIAYFNNCLNPLFYGFLGKKFKRYFLQLLKYIPPKAKSHSNLSTKMSTLSYRPSDNVSSSTKKPAPCFEVE
